Measured values: patent publication US20250361268A1, “NOVEL ANTI-INFLAMMATORY PEPTIDE AND USE THEREOF” (NOVACELL TECHNOLOGY INC., priority 2022, published 2025)

Biological target: T1, FPR1 (UniProt P21462 1-350, limits assumed)
T1 sequence (looked up): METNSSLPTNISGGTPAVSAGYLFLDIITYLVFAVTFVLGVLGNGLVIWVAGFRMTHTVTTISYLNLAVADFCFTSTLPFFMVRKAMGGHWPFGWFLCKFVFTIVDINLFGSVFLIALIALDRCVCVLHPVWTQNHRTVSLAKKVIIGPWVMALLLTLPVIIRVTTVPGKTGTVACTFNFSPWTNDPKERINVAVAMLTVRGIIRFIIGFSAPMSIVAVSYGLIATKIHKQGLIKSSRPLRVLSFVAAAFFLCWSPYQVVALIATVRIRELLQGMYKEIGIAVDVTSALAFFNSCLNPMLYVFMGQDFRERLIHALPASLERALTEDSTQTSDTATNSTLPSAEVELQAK
Experiment: cell-based or functional assay

B1: peptide of SEQ ID NO 132 (peptide)
peptide: IKFKVM
HELM: PEPTIDE1{I.K.F.K.V.[dM].[am]}$$$$V2.0; N-terminus assumed
SMILES: CC[C@H](C)[C@H](N)C(=O)N[C@@H](CCCCN)C(=O)N[C@@H](Cc1ccccc1)C(=O)N[C@@H](CCCCN)C(=O)N[C@H](C(=O)N[C@H](CCSC)C(N)=O)C(C)C
EC50 for [Ca2+]: > 10 µM

B2: peptide of SEQ ID NO 129 (peptide)
peptide: IKFWMM
HELM: PEPTIDE1{I.K.F.W.M.[dM].[am]}$$$$V2.0; N-terminus assumed
SMILES: CC[C@H](C)[C@H](N)C(=O)N[C@@H](CCCCN)C(=O)N[C@@H](Cc1ccccc1)C(=O)N[C@@H](Cc1c[nH]c2ccccc12)C(=O)N[C@@H](CCSC)C(=O)N[C@H](CCSC)C(N)=O
EC50 for [Ca2+]: > 10 µM

B3: peptide of SEQ ID NO 16 (peptide)
peptide: MRYKVM
HELM: PEPTIDE1{[CCCCCCCC(=O)[*:2]].M.R.Y.K.V.[dM].[am]}$$$$V2.0
SMILES: CCCCCCCC(=O)N[C@@H](CCSC)C(=O)N[C@@H](CCCNC(=N)N)C(=O)N[C@@H](Cc1ccc(O)cc1)C(=O)N[C@@H](CCCCN)C(=O)N[C@H](C(=O)N[C@H](CCSC)C(N)=O)C(C)C
EC50 for [Ca2+]: > 10 µM

B4: peptide of SEQ ID NO 145 (peptide)
peptide: IKYKPM
HELM: PEPTIDE1{[CCCCCCCC(=O)[*:2]].I.K.Y.K.P.[dM].[am]}$$$$V2.0
SMILES: CCCCCCCC(=O)N[C@H](C(=O)N[C@@H](CCCCN)C(=O)N[C@@H](Cc1ccc(O)cc1)C(=O)N[C@@H](CCCCN)C(=O)N1CCC[C@H]1C(=O)N[C@H](CCSC)C(N)=O)[C@@H](C)CC
EC50 for [Ca2+]: > 10 µM

B5: peptide of SEQ ID NO 131 (peptide)
peptide: IKFKYM
HELM: PEPTIDE1{I.K.F.K.Y.[dM].[am]}$$$$V2.0; N-terminus assumed
SMILES: CC[C@H](C)[C@H](N)C(=O)N[C@@H](CCCCN)C(=O)N[C@@H](Cc1ccccc1)C(=O)N[C@@H](CCCCN)C(=O)N[C@@H](Cc1ccc(O)cc1)C(=O)N[C@H](CCSC)C(N)=O
EC50 for [Ca2+]: > 10 µM

B6: peptide of SEQ ID NO 153 (peptide)
peptide: RWRYRTM
HELM: PEPTIDE1{R.W.R.Y.R.T.[dM].[am]}$$$$V2.0; N-terminus assumed
SMILES: CSCC[C@@H](NC(=O)[C@@H](NC(=O)[C@H](CCCNC(=N)N)NC(=O)[C@H](Cc1ccc(O)cc1)NC(=O)[C@H](CCCNC(=N)N)NC(=O)[C@H](Cc1c[nH]c2ccccc12)NC(=O)[C@@H](N)CCCNC(=N)N)[C@@H](C)O)C(N)=O
EC50 for [Ca2+]: > 10 µM

B7: peptide of SEQ ID NO 155 (peptide)
peptide: RWRYNYM
HELM: PEPTIDE1{R.W.R.Y.N.Y.[dM].[am]}$$$$V2.0; N-terminus assumed
SMILES: CSCC[C@@H](NC(=O)[C@H](Cc1ccc(O)cc1)NC(=O)[C@H](CC(N)=O)NC(=O)[C@H](Cc1ccc(O)cc1)NC(=O)[C@H](CCCNC(=N)N)NC(=O)[C@H](Cc1c[nH]c2ccccc12)NC(=O)[C@@H](N)CCCNC(=N)N)C(N)=O
EC50 for [Ca2+]: > 10 µM

B8: peptide of SEQ ID NO 152 (peptide)
peptide: RWRYRIM
HELM: PEPTIDE1{R.W.R.Y.R.I.[dM].[am]}$$$$V2.0; N-terminus assumed
SMILES: CC[C@H](C)[C@H](NC(=O)[C@H](CCCNC(=N)N)NC(=O)[C@H](Cc1ccc(O)cc1)NC(=O)[C@H](CCCNC(=N)N)NC(=O)[C@H](Cc1c[nH]c2ccccc12)NC(=O)[C@@H](N)CCCNC(=N)N)C(=O)N[C@H](CCSC)C(N)=O
EC50 for [Ca2+]: > 10 µM

B9: peptide of SEQ ID NO 130 (peptide)
peptide: IKKWMM
HELM: PEPTIDE1{I.K.K.W.M.[dM].[am]}$$$$V2.0; N-terminus assumed
SMILES: CC[C@H](C)[C@H](N)C(=O)N[C@@H](CCCCN)C(=O)N[C@@H](CCCCN)C(=O)N[C@@H](Cc1c[nH]c2ccccc12)C(=O)N[C@@H](CCSC)C(=O)N[C@H](CCSC)C(N)=O
EC50 for [Ca2+]: > 10 µM
